The values that follow come from patent US20160159919A1 (Chugai, published 2016).

Test [1] concerns the target T1, cynomolgus EREG (Biacore analyte) (cynomolgus monkey, UniProt O14944 63-108 (human entry), limits assumed).
T1 construct: also called cynomolgus monkey EREG; cEREG
Kind of test: SPR (Biacore T100), antibody captured on Protein A, EREG as analyte, single-cycle kinetics. How it is done: (§1) The affinity and association rate constant of an anti-EREG antibody for an antigen were measured by the single-cycle kinetics method of surface plasmon resonance assay using Biacore™-T100 (GE Healthcare Japan). HBS-EP+ (GE Healthcare Japan) was used for the running buffer, and an amine coupling kit (GE Healthcare Japan) was used to covalently bond Protein A to the CM5 chip (carboxymethyl dextran-coated chip). Each anti-EREG antibody was prepared so that approximately 350 RU will be captured by Protein A. Human EREG or cynomolgus EREG used as the analyte was prepared at 0, 0.7, 1.4, 2.8, 5.6, and 11.2 nM using HBS-EP+. Measurement was carried out by first allowing Protein A to capture the antibody solution, and then at a flow rate of 30 μL/min, successively injecting each of the 0, 0.7, 1.4, 2.8, 5.6, and 11.2 nM human EREG or cynomolgus EREG solutions for three minutes to allow reaction to take place. Then, the solution was switched to HBS-EP+, and the dissociation phase was measured for 15 minutes. After completion of the dissociation phase measurement, the sensor chip was washed with 25 mM NaOH and regenerated. The measurement at zero concentration was similarly carried out by allowing Protein A to capture the antibody solution, and performing three-minute HBS-EP+ injections successively for five times to allow reaction to take place, and then switching to HBS-EP+ to measure the dissociation phase for 15 minutes. After completion of the dissociation phase measurement, the sensor chip was washed with 25 mM NaOH and regenerated. A data analysis software exclusively for Biacore, Biacore T100 Evaluation Software Version 2.0.1, was used to perform kinetic analyses to calculate the association rate constant (kₐ), dissociation rate constant (kd), and the rate constant ratio from the obtained sensorgrams. To correct for the day-to-day differences in the measurement values, FIGS. 1 to 4 and Tables 16 and 19 show ratios based on taking the value of the control sample (cH-G1/cL-k) measured on the same day as 1.
Background: SPR reads the build-up and loss of mass on a sensor chip optically.

Test [2] has as its target T2, Human EREG (Biacore analyte) (human, UniProt O14944 63-108).
T2 construct: also called hEREG; human epiregulin
The test is described as above. How it is done: as §1

Test [3] has as its target T1, cynomolgus EREG (Biacore analyte). Put plainly: SPR (Biacore T100), antibody captured on Protein A, EREG as analyte; KD for monkey EREG over KD for human EREG. How it is done:
as §1

Test [4] shares this target. Put plainly: SPR (Biacore T100); KD for monkey EREG over KD for human EREG. How it is done: as §1
Test [5] has as its target T3, hsEREG-His (mature human EREG-6His fusion protein) (human, UniProt O14944 30-108).
T3 sequence: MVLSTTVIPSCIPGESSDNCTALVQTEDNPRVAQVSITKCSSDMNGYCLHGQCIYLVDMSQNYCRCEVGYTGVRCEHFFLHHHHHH
Put plainly: cell-based or functional assay.

Numbering of substitutions follows the chain as printed.

T1 sequence (O14944 other isoform, or with tags, fused parts or gaps limits assumed): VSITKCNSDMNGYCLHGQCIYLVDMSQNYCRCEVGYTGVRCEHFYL

B1: H87-G1d/LB-k (antibody, human IgG1, kappa, V domains shown)
VH: QDQLVQSGAEVKKPGASVKVSCKASGFNIKDTYIQWVRQAPGQGLEWMGRIDPLTGQTKYQEKFEGRVTITADTSTNTAYMELSSLRSEDTAVYYCVRSGTSFDFWGQGTLVTVSS
VL: DIQMTQSPSSLSASVGDRVTITCKASQDIHKYIAWYQQKPGQAPRLLIQYTSTLQPGVPSRFSGSGSGTDYTFTISSLQPEDIATYYCLQYDNLRTFGGGTKVEIKR
For orientation: Kd means a measure of binding affinity in units of concentration. Broadly, the koff is a measure of how fast the partners let go of each other. One may read the kon as the rate constant with which the complex forms. In test [1], B1 yielded a Kd of 5200 pM, a koff of 0.0045 s⁻¹ and a kon of 860000 M⁻¹ s⁻¹. In test [2], the Kd was 150 pM, the koff came out at 0.0002 s⁻¹ and the kon was determined as 1.3e+06 M⁻¹ s⁻¹. Moreover, the “cEREG KD (nM)/hEREG KD (nM)” value in test [3] was 35.1 ratio. The “cEREG (nM)/hEREG (nM)” value in test [4] was 35.1 ratio.

B2: H240-G1d/L73-k (antibody, human IgG1, kappa, V domains shown)
VH: B1 VH with T55R, G56K, Q61R, T101R, S102E, F105Y
VL: B1 VL with K24R, D92E, N93Q
Regarding B2, in test [1], binding was put at a Kd of 870 pM, the koff was 0.00029 s⁻¹ and the kon was found to be 340000 M⁻¹ s⁻¹. In test [2], this molecule yielded a Kd of 220 pM, a koff of 7.7e-05 s⁻¹ and a kon of 340000 M⁻¹ s⁻¹. For the same molecule, the “IC50 (read off the curve), growth ratio of EGFR_BAF cells with hsEREG-His 2.5 ng/mL” value (“IC50 (read off the curve), growth ratio” for short) in test [5] is ~0.5 µg/mL. Moreover, the “cEREG (nM)/hEREG (nM)” value in test [4] amounted to 3.6 ratio.

B3: H206-G1d/L73-k (antibody, human IgG1, kappa, V domains shown)
VH: B1 VH with K13N, T55R, G56R, Q61R, T101R, S102E
VL: B1 VL with K24R, D92E, N93Q
In test [1], B3 registered a Kd of 450 pM, a koff of 0.00023 s⁻¹ and an association rate constant (kon) of 500000 M⁻¹ s⁻¹. In test [2], this molecule had a Kd of 130 pM, a koff of 7.4e-05 s⁻¹ and a kon of 550000 M⁻¹ s⁻¹. Besides, the “IC50 (read off the curve), growth ratio” value in test [5] is ~0.8 µg/mL. Moreover, the “cEREG (nM)/hEREG (nM)” value in test [4] is 3.4 ratio.

B4: H231-G1d/L73-k (antibody, human IgG1, kappa)
heavy: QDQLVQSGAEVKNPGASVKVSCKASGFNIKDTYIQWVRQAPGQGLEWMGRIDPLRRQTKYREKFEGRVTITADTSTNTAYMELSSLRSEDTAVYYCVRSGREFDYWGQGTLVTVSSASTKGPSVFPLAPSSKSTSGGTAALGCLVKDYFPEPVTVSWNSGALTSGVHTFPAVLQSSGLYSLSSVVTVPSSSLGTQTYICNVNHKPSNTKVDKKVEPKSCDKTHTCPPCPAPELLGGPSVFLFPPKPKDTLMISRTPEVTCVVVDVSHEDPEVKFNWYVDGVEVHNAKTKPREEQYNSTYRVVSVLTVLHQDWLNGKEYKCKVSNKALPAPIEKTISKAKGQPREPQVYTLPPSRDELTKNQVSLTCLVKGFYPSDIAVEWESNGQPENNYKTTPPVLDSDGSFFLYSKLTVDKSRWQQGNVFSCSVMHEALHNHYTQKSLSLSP
light: DIQMTQSPSSLSASVGDRVTITCRASQDIHKYIAWYQQKPGQAPRLLIQYTSTLQPGVPSRFSGSGSGTDYTFTISSLQPEDIATYYCLQYEQLRTFGGGTKVEIKRTVAAPSVFIFPPSDEQLKSGTASVVCLLNNFYPREAKVQWKVDNALQSGNSQESVTEQDSKDSTYSLSSTLTLSKADYEKHKVYACEVTHQGLSSPVTKSFNRGEC
In test [1], B4 registered a Kd of 660 pM, a koff of 0.00028 s⁻¹ and an association rate constant (kon) of 420000 M⁻¹ s⁻¹. In test [2], this molecule displayed a Kd of 140 pM, a koff of 8.7e-05 s⁻¹ and a kon of 620000 M⁻¹ s⁻¹. Also, in test [4], the “cEREG (nM)/hEREG (nM)” value was found to be 3.5 ratio.

B5: H240-G1d/L53-k (antibody, human IgG1, kappa, V domains shown)
VH: B1 VH with T55R, G56K, Q61R, T101R, S102E, F105Y
VL: B1 VL with K24R
On to B5, for which, in test [1], the Kd came to 1500 pM, the koff was 0.00089 s⁻¹ and the kon amounted to 610000 M⁻¹ s⁻¹. In test [2], this molecule had a Kd of 270 pM, a koff of 0.00011 s⁻¹ and a kon of 420000 M⁻¹ s⁻¹. Further, the “IC50 (read off the curve), growth ratio” value in test [5] was ~0.4 µg/mL. Further, the “cEREG (nM)/hEREG (nM)” value in test [4] turned out to be 5.4 ratio.

B6: H206-G1d/L53-k (antibody, human IgG1, kappa, V domains shown)
VH: B1 VH with K13N, T55R, G56R, Q61R, T101R, S102E
VL: B1 VL with K24R
In test [1], B6 yielded a Kd of 940 pM, a koff of 0.00061 s⁻¹ and a kon of 640000 M⁻¹ s⁻¹. In test [2], this molecule displayed a Kd of 170 pM, a koff of 0.00011 s⁻¹ and a kon of 660000 M⁻¹ s⁻¹. Besides, the “cEREG (nM)/hEREG (nM)” value in test [4] is 5.2 ratio.

B7: chimeric antibody EP27 (cH-G1/cL-k) (antibody, human IgG1, kappa, V domains shown)
VH: EDQLQQSGAELVKPGASVKLSCTASGFNIKDTYIQWVKLRPEQGLEWIGRIDPLNGNTKYVPKFQGKATITADTSSNTAYLQLSSLTSEDTAVYYCVRSGTLFDFWGQGTTLTVSS
VL: DIQMTQSPSSLSASLGGKVTITCKASQDIHKYIAWYQHKPGKGPRLLIQYTSTLQPGIPSRFSGSGSGRDYSFSISNLEPEDIATYYCLQYDNLRTFGGGTKLEIKR
notes: mouse EP27 variable regions with human IgG1 (G1) and kappa constant regions; also called chimeric EP27
In test [1], B7 yielded a Kd of 5200 pM, a koff of 0.0052 s⁻¹ and a kon of 990000 M⁻¹ s⁻¹. For the same molecule, in test [2], the Kd was 200 pM, the koff came out at 0.00022 s⁻¹ and the kon was 1.1e+06 M⁻¹ s⁻¹. Besides, in test [5], the “IC50 (read off the curve), growth ratio” value is ~0.7 µg/mL. For the same molecule, in test [3], the “cEREG KD (nM)/hEREG KD (nM)” value came out at 40.9 ratio. The “cEREG (nM)/hEREG (nM)” value in test [4] turned out to be 40.9 ratio.
